Measured values published in PMC12094245.

Target: human recombinant NEK2 protein (Abcam, ab42599), RED-NHS labelled (human) (UniProt P51955)
Test: MST

B1: SPTLC1 protein tested in the MST assay (enzyme)
chain: MATATEQWVLVEMVQALYEAPAYHLILEGILILWIIRLLFSKTYKLQERSDLTVKEKEELIEEWQPEPLVPPVPKDHPALNYNIVSGPPSHKTVVNGKECINFASFNFLGLLDNPRVKAAALASLKKYGVGTCGPRGFYGTFDVHLDLEDRLAKFMKTEEAIIYSYGFATIASAIPAYSKRGDIVFVDRAACFAIQKGLQASRSDIKLFKHNDMADLERLLKEQEIEDQKNPRKARVTRRFIVVEGLYMNTGTICPLPELVKLKYKYKARIFLEESLSFGVLGEHGRGVTEHYGINIDDIDLISANMENALASIGGFCCGRSFVIDHQRLSGQGYCFSASLPPLLAAAAIEALNIMEENPGIFAVLKEKCGQIHKALQGISGLKVVGESLSPAFHLQLEESTGSREQDVRLLQEIVDQCMNRSIALTQARYLEKEEKCLPPPSIRVVVTVEQTEEELERAASTIKEVAQAVLL
B1 was tested, and the Kd was 350 nM.
